PMC4350430

Target: His6-ΔIBBMOS6 (Arabidopsis thaliana) (UniProt O04294)
Test: ITC; MicroCal 205, 25°C, 20 mM HEPES, 150 mM NaCl, pH 7.5; His6–ΔIBB–MOS6 in the cell at 43–54 μM, titrated with His6-tagged cargo at 320–940 μM

UniProt O04294, sequence (O04294 whole entry, stated change not applied): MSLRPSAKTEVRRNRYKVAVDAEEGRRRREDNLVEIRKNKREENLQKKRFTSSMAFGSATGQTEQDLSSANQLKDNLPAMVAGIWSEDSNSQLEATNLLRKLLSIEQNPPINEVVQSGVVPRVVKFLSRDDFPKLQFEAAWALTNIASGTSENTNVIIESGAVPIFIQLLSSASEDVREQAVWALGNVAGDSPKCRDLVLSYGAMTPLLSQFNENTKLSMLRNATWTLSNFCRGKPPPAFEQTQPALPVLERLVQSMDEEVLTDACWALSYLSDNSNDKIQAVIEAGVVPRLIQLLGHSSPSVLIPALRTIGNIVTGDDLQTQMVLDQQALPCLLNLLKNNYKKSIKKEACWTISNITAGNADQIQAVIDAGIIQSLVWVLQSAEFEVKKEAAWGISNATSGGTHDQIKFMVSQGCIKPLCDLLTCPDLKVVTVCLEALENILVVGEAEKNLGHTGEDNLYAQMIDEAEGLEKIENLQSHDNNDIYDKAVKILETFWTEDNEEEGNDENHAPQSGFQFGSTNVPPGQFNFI

| Substance | Kd [µM] | stoichiometry N |
| --- | --- | --- |
| His6-HaRxL106 (effector domain, amino acids 46–285) (domain or fragment) | 0.54 to 0.85 | 1 |
| HaRxL106ΔC–SV40NLS fusion (recombinant, for ITC) | 2.22 to 3.7 |  |
| His6–SAP11 (natural protein) | 4.42 to 6.8 |  |
